This series has as its target T1, TRC-1 (p21 SNF-1/JunB heteromultimer), SLB-I nuclear extract (Homo sapiens) (UniProt Q9NR55+P17275).
T1 sequence 1: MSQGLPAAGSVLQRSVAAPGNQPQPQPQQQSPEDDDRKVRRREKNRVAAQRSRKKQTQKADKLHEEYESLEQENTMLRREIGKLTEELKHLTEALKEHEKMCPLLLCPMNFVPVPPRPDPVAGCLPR
T1 sequence 2: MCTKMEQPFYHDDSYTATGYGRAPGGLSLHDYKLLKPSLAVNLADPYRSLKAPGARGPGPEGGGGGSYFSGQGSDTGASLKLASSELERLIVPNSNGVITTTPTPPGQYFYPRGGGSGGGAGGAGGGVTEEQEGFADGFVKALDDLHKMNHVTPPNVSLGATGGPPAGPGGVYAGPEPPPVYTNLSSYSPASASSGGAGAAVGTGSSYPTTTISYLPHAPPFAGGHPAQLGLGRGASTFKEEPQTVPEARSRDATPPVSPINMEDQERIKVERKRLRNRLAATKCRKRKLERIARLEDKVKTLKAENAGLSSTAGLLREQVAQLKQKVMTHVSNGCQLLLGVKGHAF
Put plainly: competition. The conditions noted are these: EMSA, site2 probe.

Substance HTLV-1 LTR 21-bp repeat site1 (s1) registered a binding signal (fold excess for 55% competition) of 100.
In the case of HTLV-1 LTR 21-bp repeat site2 (s2), the binding signal (% competition at 12.5-fold excess) (on ice) amounted to 55.
In turn, HTLV-1 LTR 21-bp repeat site3 (s3) registered a binding signal (fold excess for 55% competition) (nearly 50-fold) of 50.
